Laboratory results: patent publication US20160251419A1

Molecular target: Recombinant Aβ1-42 (rAβ1-42 peptides) in the Thioflavin T fibril formation assay (UniProt P05067)
Experiment: cell-based or functional assay

Sequence of Recombinant Aβ1-42 (rAβ1-42 peptides) in the Thioflavin T fibril formation assay (P05067 672-713 limits assumed): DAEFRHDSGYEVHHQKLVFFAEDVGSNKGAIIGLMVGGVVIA

T50 (time in minutes for 50% inhibition of fibril formation): 25.9 min
Substance: control anti-rhodopsin 1D4 antibody (Abcam)
